Tests used:
hCD3epsilon-FC antigen [1] = molecular target: T1, hCD3epsilon-FC antigen (human, UniProt P07766 23-126); assay: SPR Biacore T200; hCD3epsilon-FC amine-coupled on CM5, IgG as analyte; set-up: unit not given here
T1 construct: immobilized by amine coupling on CM5; also called human CD3epsilon

[2] = molecular target: T2, recombinant human hFcγR1a (human, UniProt P12314 16-288, limits assumed); assay: SPR Biacore T200; IgG amine-coupled on CM5, receptor as analyte; response normalized to parental (=100);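 further: measured at room temperature in pH 7.6 phosphate buffer with Tween 20, double-referenced sensorgrams, maximum response taken as binding capacity at saturation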
T2 construct: recombinant, analyte in SPR; also called FcγRI
Description: (§1) Kinetics and binding capacity were measured on a BIAcore® T200 instrument (GE Healthcare, Glattbrugg, Switzerland) at room temperature, with proteins diluted in running buffer 10 mM NaP, 150 mM NaCl, 0.05% Tween 20, pH7.6. A CM5 sensor chip (Sensor Chip SA, GE Healthcare Life Sciences) was used to immobilized engineered immunoglobulins by amine coupling. Then, recombinant human hFcγR1a, or recombinant human hFcγR3a (F158V), or recombinant human hFcRn, or hC1q was used as the analyte.
(§2) Binding data were acquired by subsequent injection of analyte dilution series on the reference and measuring flow cells. Zero concentration samples (running buffer only) were included to allow double referencing during data evaluation. For data evaluation, doubled referenced sensorgrams were analyzed and the maximum response reached during the experiment was monitored. Maximum response describes the binding capacity of the surface in terms of the response at saturation. Finally, measured maximum responses were normalized to the one measured using parental immunoglobulin (not engineered).

[3] = molecular target: T3, recombinant human hFcγR3a (F158V) (human, UniProt P08637 17-208); assay: as above
T3 construct: also called FcγRIII
Description: as §1, §2

hCD3epsilon-FC antigen [4] = molecular target: T1, hCD3epsilon-FC antigen; assay: SPR Biacore T200; hCD3epsilon-FC amine-coupled on CM5, IgG as analyte; 1:1 model, apparent KD (bivalent analyte)
Description: A CM5 sensor chip (Sensor Chip SA, GE Healthcare Life Sciences) was used to immobilize hCD3epsilon-FC antigen by amine coupling. Then, engineered anti-CD3 hIgG1 were used as the analyte.
Binding data were acquired by subsequent injection of analyte dilution series on the reference and measuring flow cells. Zero concentration samples (running buffer only) were included to allow double referencing during data evaluation. For data evaluation, doubled referenced sensorgrams were analyzed by applying a 1:1 binding model analysis to generate the equilibrium dissociation constant (KD). Binding constant described Table 7 are considered as apparent KD since immunoglobulins used as analyte are bivalent for the immobilized antigen. In addition, maximum response reached during the experiment was monitored. Maximum response describes the binding capacity of the surface in terms of the response at saturation. Finally, measured maximum responses were normalized to the one measured using parental immunoglobulin (not engineered).

T3 sequence (P08637 17-208 F176V): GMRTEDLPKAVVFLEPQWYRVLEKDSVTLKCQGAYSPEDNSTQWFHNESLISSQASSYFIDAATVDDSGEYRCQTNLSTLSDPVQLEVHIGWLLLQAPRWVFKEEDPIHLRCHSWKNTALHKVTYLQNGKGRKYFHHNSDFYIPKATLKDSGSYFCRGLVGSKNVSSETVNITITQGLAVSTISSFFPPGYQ
T1 sequence (P07766 23-126 limits assumed): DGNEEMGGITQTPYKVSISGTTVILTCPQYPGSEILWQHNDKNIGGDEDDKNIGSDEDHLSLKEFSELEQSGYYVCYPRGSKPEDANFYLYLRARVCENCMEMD
T2 sequence (P12314 16-288 limits assumed): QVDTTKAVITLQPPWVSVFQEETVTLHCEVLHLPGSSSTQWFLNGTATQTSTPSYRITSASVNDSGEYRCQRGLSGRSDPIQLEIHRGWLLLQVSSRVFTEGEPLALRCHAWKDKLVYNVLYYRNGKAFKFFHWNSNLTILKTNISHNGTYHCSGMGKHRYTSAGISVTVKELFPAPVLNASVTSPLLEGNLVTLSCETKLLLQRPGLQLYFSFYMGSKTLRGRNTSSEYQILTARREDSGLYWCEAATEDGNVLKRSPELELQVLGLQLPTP

Row | Binder | Maximum response at 125 nM hIgG1 (hCD3epsilon-FC antigen [1]) | Maximum response at 100 nM hFcγR1a (RU) [2] | Maximum response at 300 nM hFcγR3a F158V (RU) [3] | Kd (hCD3epsilon-FC antigen [4])
1 | CD3_2 (antibody, human IgG1, lambda, hIgG1) heavy: EVQLVESGGGLVQPGGSLKLSCAASGFTFNTYAMNWVRQASGKGLEWVGRIRSKYNNYATYYADSVKDRFTISRDDSKSTLYLQMNSLKTEDTAVYYCVRHGNFGNSYVSWFAYWGQGTLVTVSSASTKGPSVFPLAPSSKSTSGGTAALGCLVKDYFPEPVTVSWNSGALTSGVHTFPAVLQSSGLYSLSSVVTVPSSSLGTQTYICNVNHKPSNTKVDKRVEPKSCDKTHTCPPCPAPELCCHPSVFLFPPKPKDTLMISRTPEVTCVVVGLRHEDPEVKFNWYVDGVEVHNAKTKPREEQYCGCYRVVSVLTVLHQDWLNGKEYKCKVSNKALPAPIEKTISKAKGQPREPQVYTLPPSRDELTKNQVSLTCLVKGFYPSDIAVEWESNGQPENNYKTTPPVLDSDGSFFLYSKLTVDKSRWQQGNVFSCSVMHEALHNHYTQKSLSLSPGK light: QAVVTQEPSLTVSPGGTVTLTCRSSTGAVTTSNYANWVQQKPGQAPRGLIGGTNKRAPWTPARFSGSLLGDKAALTLSGAQPEDEAEYFCALWYSNLWVFGGGTKLTVLGQPKAAPSVTLFPPSSEELQANKATLVCLISDFYPGAVTVAWKADSSPVKAGVETTTPSKQSNNKYAASSYLSLTPEQWKSHRSYSCQVTHEGSTVEKTVAPTECS | 386 | 5 RU | 20 RU | 2.24 nM
2 | CD3_3_YTE (antibody, human IgG1, lambda, hIgG1) heavy: EVQLVESGGGLVQPGGSLKLSCAASGFTFNTYAMNWVRQASGKGLEWVGRIRSKYNNYATYYADSVKDRFTISRDDSKSTLYLQMNSLKTEDTAVYYCVRHGNFGNSYVSWFAYWGQGTLVTVSSASTKGPSVFPLAPSSKSTSGGTAALGCLVKDYFPEPVTVSWNSGALTSGVHTFPAVLQSSGLYSLSSVVTVPSSSLGTQTYICNVNHKPSNTKVDKRVEPKSCDKTHTCPPCPAPELCCHPSVFLFPPKPKDTLYITREPEVTCVVTGLRDEDPEVKFNWYVDGVEVHNAKTKPREEQYCGCYRVVSVLTVLHQDWLNGKEYKCKVSNKALPAPIEKTISKAKGQPREPQVYTLPPSRDELTKNQVSLTCLVKGFYPSDIAVEWESNGQPENNYKTTPPVLDSDGSFFLYSKLTVDKSRWQQGNVFSCSVMHEALHNHYTQKSLSLSPGK light: QAVVTQEPSLTVSPGGTVTLTCRSSTGAVTTSNYANWVQQKPGQAPRGLIGGTNKRAPWTPARFSGSLLGDKAALTLSGAQPEDEAEYFCALWYSNLWVFGGGTKLTVLGQPKAAPSVTLFPPSSEELQANKATLVCLISDFYPGAVTVAWKADSSPVKAGVETTTPSKQSNNKYAASSYLSLTPEQWKSHRSYSCQVTHEGSTVEKTVAPTECS | 371 | 7 RU | 10 RU | 2.1 nM
3 | CD3_4_YTE (antibody, human IgG1, lambda, hIgG1) heavy: EVQLVESGGGLVQPGGSLKLSCAASGFTFNTYAMNWVRQASGKGLEWVGRIRSKYNNYATYYADSVKDRFTISRDDSKSTLYLQMNSLKTEDTAVYYCVRHGNFGNSYVSWFAYWGQGTLVTVSSASTKGPSVFPLAPSSKSTSGGTAALGCLVKDYFPEPVTVSWNSGALTSGVHTFPAVLQSSGLYSLSSVVTVPSSSLGTQTYICNVNHKPSNTKVDKRVEPKSCDKTHTCPPCPAPELCCHPSVFLFPPKPKDTLYITREPEVTCVVVDVSHEDPEVKFNWYVDGVEVHNAKTKPREEQYCGCYRVVSVLTVLHQDWLNGKEYKCKVSNKALPAPIEKTISKAKGQPREPQVYTLPPSRDELTKNQVSLTCLVKGFYPSDIAVEWESNGQPENNYKTTPPVLDSDGSFFLYSKLTVDKSRWQQGNVFSCSVMHEALHNHYTQKSLSLSPGK light: QAVVTQEPSLTVSPGGTVTLTCRSSTGAVTTSNYANWVQQKPGQAPRGLIGGTNKRAPWTPARFSGSLLGDKAALTLSGAQPEDEAEYFCALWYSNLWVFGGGTKLTVLGQPKAAPSVTLFPPSSEELQANKATLVCLISDFYPGAVTVAWKADSSPVKAGVETTTPSKQSNNKYAASSYLSLTPEQWKSHRSYSCQVTHEGSTVEKTVAPTECS | 427 | 4 RU | 10 RU | 2.74 nM
4 | CD3_4 (antibody, human IgG1, lambda, hIgG1) heavy: EVQLVESGGGLVQPGGSLKLSCAASGFTFNTYAMNWVRQASGKGLEWVGRIRSKYNNYATYYADSVKDRFTISRDDSKSTLYLQMNSLKTEDTAVYYCVRHGNFGNSYVSWFAYWGQGTLVTVSSASTKGPSVFPLAPSSKSTSGGTAALGCLVKDYFPEPVTVSWNSGALTSGVHTFPAVLQSSGLYSLSSVVTVPSSSLGTQTYICNVNHKPSNTKVDKRVEPKSCDKTHTCPPCPAPELCCHPSVFLFPPKPKDTLMISRTPEVTCVVVDVSHEDPEVKFNWYVDGVEVHNAKTKPREEQYCGCYRVVSVLTVLHQDWLNGKEYKCKVSNKALPAPIEKTISKAKGQPREPQVYTLPPSRDELTKNQVSLTCLVKGFYPSDIAVEWESNGQPENNYKTTPPVLDSDGSFFLYSKLTVDKSRWQQGNVFSCSVMHEALHNHYTQKSLSLSPGK light: QAVVTQEPSLTVSPGGTVTLTCRSSTGAVTTSNYANWVQQKPGQAPRGLIGGTNKRAPWTPARFSGSLLGDKAALTLSGAQPEDEAEYFCALWYSNLWVFGGGTKLTVLGQPKAAPSVTLFPPSSEELQANKATLVCLISDFYPGAVTVAWKADSSPVKAGVETTTPSKQSNNKYAASSYLSLTPEQWKSHRSYSCQVTHEGSTVEKTVAPTECS | 470 | 4 RU | 10 RU | 3.38 nM
5 | CD3_3 (antibody, human IgG1, lambda, hIgG1) heavy: EVQLVESGGGLVQPGGSLKLSCAASGFTFNTYAMNWVRQASGKGLEWVGRIRSKYNNYATYYADSVKDRFTISRDDSKSTLYLQMNSLKTEDTAVYYCVRHGNFGNSYVSWFAYWGQGTLVTVSSASTKGPSVFPLAPSSKSTSGGTAALGCLVKDYFPEPVTVSWNSGALTSGVHTFPAVLQSSGLYSLSSVVTVPSSSLGTQTYICNVNHKPSNTKVDKRVEPKSCDKTHTCPPCPAPELCCHPSVFLFPPKPKDTLMISRTPEVTCVVTGLRDEDPEVKFNWYVDGVEVHNAKTKPREEQYCGCYRVVSVLTVLHQDWLNGKEYKCKVSNKALPAPIEKTISKAKGQPREPQVYTLPPSRDELTKNQVSLTCLVKGFYPSDIAVEWESNGQPENNYKTTPPVLDSDGSFFLYSKLTVDKSRWQQGNVFSCSVMHEALHNHYTQKSLSLSPGK light: QAVVTQEPSLTVSPGGTVTLTCRSSTGAVTTSNYANWVQQKPGQAPRGLIGGTNKRAPWTPARFSGSLLGDKAALTLSGAQPEDEAEYFCALWYSNLWVFGGGTKLTVLGQPKAAPSVTLFPPSSEELQANKATLVCLISDFYPGAVTVAWKADSSPVKAGVETTTPSKQSNNKYAASSYLSLTPEQWKSHRSYSCQVTHEGSTVEKTVAPTECS | 375 | 3 RU | 2 RU | 2.04 nM

Reference: US20250011428A1 (Novartis, published 2025)
